Test results taken from patent publication US20090035258A1, “METHODS OF TREATING CANCER BY ADMINISTERING HUMAN IL-18 COMBINATIONS” (priority 2007, published 2009).
Read-outs that look alike come from different tables or passages of the source.

Assays:
EL-4 T-cell lymphoma = test: IL-18 combination with doxorubicin in EL-4 T cell lymphoma, survival; type: in vivo, mouse
Description: Studies were performed in female C57/BL/6 mice. As a general protocol, C57/BL mice were injected I.P. with 0.2 cc of stock EL-4 cells. EL-4 murine T-lymphoma cells were expanded in RPMI w/10% FCS. All animals were randomized to six or seven mice per study group with food and water ad libitum. EL-4 cells were harvested on day 0, counted and implanted I.P. with 5×10^5 EL-4 lymphoma cells. Animals were randomized to treatment groups of 6/7 animals on Day 3. Doxorubicin was administered IV on Days 3 &10, pos-implantation. mIL-18 (SEQ ID NO:2) was administered S.C. on Days 3-16. The animals were observed daily for toxicity and mortality.
All animals tolerated dosing schedule and levels well by gross observation. On day 16, all dosing was terminated, and median vehicle death occurred on day 17.5. All vehicle mice expired between days 16-18 post-implantation. Increase in lifespan was calculated by study group/vehicle group−1×100%. For mIL-18 (SEQ ID NO:2) combination therapy with doxorubicin in EL-4 T cell lymphoma, the data were analyzed with respect to median survival time and increase in lifespan.
The prolongation of life span in response to combinational therapy with mIL-18 (SEQ ID NO:2) and doxorubicin was assessed in the syngeneic tumor model of female C57BI/6 mice bearing EL-4 T-cell lymphoma. […] As described below, when vehicle animals expired (on day 16) all dosing was terminated. […]

NK cells [1] = test: NK cytotoxicity assay in EL-4 T-cell lymphoma model; conditions: 21 hours post-treatment (FIG. 12)
[2] = cited from earlier work
[3] = tested on: murine colon carcinoma, Colo 26; test: IL-18 and 5-FU combination in syngeneic murine colon cancer model Colo26; type: in vivo, mouse; conditions: 5-FU alone or mIL-18 alone
Description: This study aimed to evaluate the efficacy of mIL-18 (SEQ ID NO:2) combination therapy with 5-fluorouracil (5-FU), as compared to monotherapy with 5-FU, or mIL-18 (SEQ ID NO:2) alone. Our study was performed in a well established syngeneic subcutaneous model of murine colon carcinoma, Colo 26, in BALB/c mice. The dosing with mIL-18 (SEQ ID NO:2) was performed daily with 10 μg/mouse s.c. on days 10-30 after tumor inoculation. The dosing with 5-FU was performed i.p. twice a week in the ascending dose: 27, 45 and 74 μg/mouse.
The data comparing tumor volumes in different treatment groups were evaluated at a selected representative time-point, and were expressed as mean+/−SD (FIG. 21), and as median+/−range (FIG. 22). The data were first checked for normal distribution (Gaussian approximation), and standard deviation values were compared to make sure that there is an equal variance. […] Therefore, a non-parametric test (Kruskal-Wallis analysis and Dunn's comparison test) was used for the statistical evaluation. […] FIG. 24 (median+/−SD) and FIG. 25 (mean+/−SD) show the effect of IL-18 and 5-FU combination therapy in same Colo26 syngeneic colon tumor model. […]
Survival of mice bearing Colo26 in different treatment groups was plotted in a Kaplan-Meyer survival curve analysis, and evaluated by Logrank test, and is shown in FIG. 26. […]

NK cells [4] = tested on: NK cells
[5] = tested on: human Ramos B-cell lymphoma line; test: IL-18 combination therapy with RITUXAN in murine human B-cell lymphoma model; type: in vivo, mouse; conditions: first experiment (FIG. 3); mIL-18 single agent 100 μg/dose
Description: The study was performed in outbred female homozygous SCID mice (ICR-Prkdc^scid) that lack both T and B cells.
Mice were injected with human Ramos B-cell lymphoma line that was originally derived from a patient with Burkitt's lymphoma (ATCC catalogue, CRL 1596). The tumor 1:10 homogenate was inoculated into 6-8 week old mice at the dose 0.5 ml per mouse. […] The therapy was initiated when the median tumor volume per group reached 80-150 mm^3 (at day 12 post tumor inoculation). In addition, those mice that grew a tumor with a volume outside of the set limits were excluded from the study.
The number of animals was increased to n=12, in order to have a better window to measure statistical significance. Tumor volume was measured using the viener calipers two to three times a week.

MOPC-315 plasmacytoma = test: IL-18 monotherapy in advanced MOPC-315 plasmacytoma model; type: in vivo, mouse
Description: Based upon a broad spectrum of immunostimulatory properties, IL-18 has been studied in a variety of preclinical tumor models. […] Further support for IL-18 mediated cellular immunity also comes from immunohistochemistry performed on established MOPC-315 tumors in control and IL-18 treated mice. […] In addition, it seems that an intact Fas/Fas ligand pathway is beneficial to anti-tumor response.

With `COc1cccc2c1C(=O)c1c(O)c3c(c(O)c1C2=O)C[C@@](O)(C(=O)CO)C[C@@H]3O[C@H]1C[C@H](N)[C@H](O)[C@H](C)O1` [doxorubicin, reference compound] the increase in lifespan (EL-4 T-cell lymphoma; doxorubicin monotherapy 12 mg/kg IV days 3 & 10) was “minimal increase in lifespan” and the NK cytotoxicity (NK cells [1]) was “impaired”.

For “human IL-18: recombinant mature form of human interleukin-18 (SEQ ID NO: 1), expressed in Escherichia coli”, the “toxicity at highest dose tested” value ([2]; 2000 μg/kg administered weekly for up to 24 weeks) is given as “no significant toxicity” and the maximum tolerated dose ([2]; up to 2000 μg/kg weekly for up to 24 weeks) is given as “not identified”.

In the case of `O=c1[nH]cc(F)c(=O)[nH]1` [5-FU, 5-fluorouracil, reference compound], the “therapeutic effect of monotherapy compared to control” value [3] is reported as “did not show a therapeutic effect better than a control”.

B1: mIL-18: recombinant murine IL-18 (SEQ ID NO:2), used in the pre-clinical studies (protein)
chain: NFGRLHCTTAVIRNINDQVLFVDKRQPVFEDMTDIDQSASEPQTRLIIYMYKDSEVRGLAVTLSVKDSKMSTLSCKNKIISFEEMDPPENIDDIQSDLIFFQKRVPGHNKMEFESSLYEGHFLACQKEDDAFKLILKKKDENGDKSVMFTLTNLHQS
modifications: Murine
For B1, the NK cytotoxicity (NK cells [4]) was “robust NK cytotoxicity”, the anti-tumor activity [5] was “no activity” and the tumor response (MOPC-315 plasmacytoma; 5 mg/Kg daily for approximately 30 days, advanced tumor) was “reproducible tumor regressions and cure”. For the same molecule, the “tumor response in SCID mice” value (MOPC-315 plasmacytoma; SCIDs bearing advanced MOPC-315 tumors, similar schedule) was “failed to regress”, the “rechallenge with parental tumor” value (MOPC-315 plasmacytoma; after cure with IL-18) was “tumor rejection” and the increase in lifespan (EL-4 T-cell lymphoma; IL-18 monotherapy 1, 5 and 25 ug/dose S.C. days 3-16) was “did not show any increase in lifespan”. The “therapeutic effect of monotherapy compared to control” value [3] was “did not show a therapeutic effect better than a control”.
